Laboratory results taken from patent US20140343124A1 (ROYAL INSTITUTION FOR THE ADVANCEMENT OF LEARNING MCGILL …, published 2014).

How the values were obtained:
[1] = target: actin (actin stress fibers / actin cytoskeleton of glioma cells); test: cell-based or functional assay
MYC-LC2 = target: T1, MYC-LC2 (UniProt P78559 2567-2803, limits assumed); test: co-immunoprecipitation of heterologously expressed proteins
T1 construct: domain: light chain (LC2) subunit; also called LC2 (heterologously expressed, MYC-tagged); not shown: MYC tag
T1 sequence (looked up): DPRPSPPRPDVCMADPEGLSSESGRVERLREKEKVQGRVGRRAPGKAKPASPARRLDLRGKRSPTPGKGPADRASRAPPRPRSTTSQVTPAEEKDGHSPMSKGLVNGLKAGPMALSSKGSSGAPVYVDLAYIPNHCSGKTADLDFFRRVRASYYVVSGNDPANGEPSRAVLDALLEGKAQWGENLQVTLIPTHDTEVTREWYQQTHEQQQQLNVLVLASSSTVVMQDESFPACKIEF

Molecule: DRR^ΔPEPE (from UniProt O95990 1-144)
- fold decrease in invasiveness in a 3D invasion assay [1]: 3 fold

B1: DRR^ΔHRE (other, UniProt O95990 1-144, looked up)
chain: MYSEIQRERADIGGLMARPEYREWNPELIKPKKLLNPVKASRSHQELAAALLMNHRRGLGVDSKPELQRVLEHRRRNQLIKKKKEELEAKRLQCPFEQELLRRQQRLNQLEKPPEKEEDHAPEFIKVRENLRRIATLTSEEREL
notes: also called non-LC2 form of DRR
- binding result (MYC-LC2): no binding
